According to patent US20150203579A1 (Regeneron, published 2015):

T1: monkey PD-1 with mFc (monkey)
T1 construct: also called monkey PD-1-mFc; monkey PD-1 dimer
T1 chain: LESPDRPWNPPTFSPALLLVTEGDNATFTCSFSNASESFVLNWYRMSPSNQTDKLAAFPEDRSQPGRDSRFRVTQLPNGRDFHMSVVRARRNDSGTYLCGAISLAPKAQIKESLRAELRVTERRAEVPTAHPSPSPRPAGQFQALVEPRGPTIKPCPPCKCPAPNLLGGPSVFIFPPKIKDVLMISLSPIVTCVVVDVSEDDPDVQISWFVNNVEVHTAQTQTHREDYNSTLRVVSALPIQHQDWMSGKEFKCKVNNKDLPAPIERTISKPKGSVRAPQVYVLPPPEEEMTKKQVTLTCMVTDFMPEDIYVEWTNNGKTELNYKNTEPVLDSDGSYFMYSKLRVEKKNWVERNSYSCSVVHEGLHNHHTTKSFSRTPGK

B1: H4xH9045P (antibody, V domains shown)
VH: EVQLVESGGGLVQPGRSLRLSCAASGFTFDDYDMHWVRQAPGKGLEWVSGSGWNRGSLGYADSVKGRFTISRDNAKKSLYLQMNSVRVEDTALYYCAKGFVVVSAAYFDYWGQGTLVTVSS
VL: not shown
notes: human IgG4 Fc with 2 or more amino acid changes (US20100331527); also called H4xH9045P2
B2: H4xH9128P2 (antibody, V domains shown)
VH: QVQLQESGPGLVKPSETLSLTCTVSGGSISSYHWNWIRQSPGKGLEWIGYIYYIGSTDYNPSLESRVTISVDTSKNQFSLKLSSVTAADTAVYYCARVPVGATGASDVWGQGTMVTVSS
VL: not shown
notes: human IgG4 Fc with 2 or more amino acid changes (US20100331527)
B3: H4xH9145P2 (antibody, V domains shown)
VH: QVQLVESGGGVVQPGRSLRLSCSASGFTFSAYAMHWVRQAPGKGLEWVAAISYGGSDKYYADSVKGRFTISRDNSKNTLYLQMNSLRTDDTAVYYCAKSAHWNFFFDYWGQGTLVTVSS
VL: not shown
notes: as for B2
B4: H4xH9037P (antibody, V domains shown)
VH: EVQLVESGGGLVQPGGSLRLSCAASGFTFDDYAMHWVRQAPGKGLEWVSGIGWSSGSIGYADSVKGRFTISRDNAKNSLYLQMDSLRPEDSALYYCAKAYTFMITLYFDYWGQGTLVTVSS
VL: not shown
notes: human IgG4 Fc with 2 or more amino acid changes (US20100331527); also called H4xH9037P2
B5: H4xH9135P2 (antibody, V domains shown)
VH: EVQLVESGGSVVRPGGSLRLSCVVSGFTFEDYGLSWVRQIPGKGLEWVSGISWTGGNTGYADSVKGRFTISRDNAKNSLYLQMNSLRAEDTALYHCTRDRQWLMQWYFDYWGQGTLVTVSS
VL: not shown
notes: as for B2
B6: H1M7799N (antibody, V domains shown)
VH: EVQLVESGGGLVQPGGSLRLSCAASGFTVSNNYMSWVRQAPGKGLEWVSVIYSGGFTYYTDSVKGRFTISRHNSKNTLYLQMNSLRAEDTAVYYCARYYYDTSDYWTFFDYWGQGTLVTVSS
VL: EIVMTQSPATLSVSPGERATLSCRASQSVSSNLAWYQQKPGQAPRLLIYGASTRATGIPARFSGSGSGTEFTLTISSLQSGDFAVYYCQQYNNWPLTFGGGTKVEIN
notes: human variable regions, mouse IgG1 Fc
B7: H1M7800N (antibody, V domains shown)
VH: B6 VH
VL: B6 VL
notes: as for B6
B8: H4H9057P2 (antibody, V domains shown)
VH: EVQLVESGGGLVQSGRSLRLSCAASGFTFDDYAMHWVRQPPGKGLEWVSGINWNRGRTGYADSVKGRFTISRDNAKNSLYLQMNDLRVEDTALYYCAKAEQWLDEGYFDYWGQGTLVTVSS
VL: not shown
notes: fully human; H4H prefix (human IgG4 Fc)

molecular target: T2, recombinant human PD-L1 expressed with a C-terminal mouse IgG2a Fc tag (human); test: SPR Biacore 3000: 500 nM mAb alone (no hPD-1.hFc) over captured hPD-L1.mFc surface, control
T2 construct: also called hPD-L1-mFc; hPD-L1.mFc

| 500 nM of anti-PD-1 monoclonal antibody (RU) | Binder |
| --- | --- |
| -4 | B1 |
| -5 | B2 |
| -8 | B3 |
| -4 | B4 |
| -3 | B5 |

molecular target: PD-1 chimera: extracellular domain of human PD-1 with trans-membrane and cytoplasmic domains of human CD300a, … (human, UniProt Q9UGN4 181-299, limits assumed); test: cell-based or functional assay

| Concentration (M) of Antibody at 150% activation [M] | Emax mean [%] @ 100 nM [%] | Binder |
| --- | --- | --- |
| 2.23e-08 | 176 | B1 |
| 2.4e-09 | 185 | B3 |
| 2.97e-08 | 183 | B6 |
| 1.65e-08 | 182 | B7 |
| 2.82e-09 | 195 | B4 |
| 1.55e-09 | 193 | B5 |
| 2.68e-08 | 212 | B8 |

Molecular target: T1, monkey PD-1 with mFc
Test: SPR, captured mAb, 25 C;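 note: purified anti-PD-1 antibodies tested on Biacore 4000 or T200 instruments, rate constants obtained via 1:1 binding model fit, with KD as kd/ka and half-life as ln2/(60·kd)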

| 100 nM Monkey PD-1-mFc Bound (RU) | Kd [nM] | koff [s⁻¹] | kon [M⁻¹ s⁻¹] | t1/2 [min] | Binder |
| --- | --- | --- | --- | --- | --- |
| 78 | 1.72 | 0.000168 | 97800 | 69 | B1 |
| 64 | 1.57 | 0.000124 | 78700 | 94 | B2 |
| 84 | 2.08 | 0.00015 | 72400 | 77 | B3 |
| 58 | 0.912 | 0.000137 | 150000 | 84 | B4 |
| 74 | 0.602 | 0.000143 | 238000 | 81 | B5 |
| 75 | 2.98 | 0.000303 | 102000 | 38 | B8 |

molecular target: T3, recombinant human PD-1 dimer expressed with a C-terminal mouse IgG2a Fc tag (human); test: competition ELISA: 1.5 nM hPD-1-mFc to coated hPD-L1-hFc; * below theoretical bottom 7.5E-10 M
T3 construct: also called hPD-1-mFc

| IC50 [nM] | Binder |
| --- | --- |
| 0.28 | B1 |
| 0.64 | B2 |
| 0.22 | B6 |
| 0.6 | B7 |
| 0.19 | B8 |

molecular target: T4, full length human PD-1 on HEK293/hPD-1 cells (human, UniProt Q15116 25-288); test: FACS, 100 nM mAb, HEK293/hPD-1 cells;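 note: antibodies incubated with cells for 15-30 min on ice, bound antibody detected through a secondary F(ab′)2 by flow cytometry, with parental HEK293 cells tested in parallel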

| MFI [MFI] | Binder |
| --- | --- |
| 8880 | B1 |
| 9080 | B2 |
| 11600 | B3 |
| 6860 | B6 |
| 6810 | B7 |
| 8790 | B4 |
| 9380 | B5 |
| 6500 | B8 |

molecular target: T4, full length human PD-1 on HEK293/hPD-1 …; test: FACS, 100 nM mAb

| ratio of MFI HEK293/hPD-1 to HEK293 parental cells | Binder |
| --- | --- |
| 93.7 | B1 |
| 51.2 | B3 |
| 26.9 | B6 |
| 24.7 | B7 |
| 81.4 | B4 |
| 82.2 | B5 |
| 46.1 | B8 |

molecular target: T3, recombinant human PD-1 dimer expressed …; test: competition ELISA: 1.5 nM hPD-1-mFc to coated hPD-L1-hFc

| % blocking at 200 nM antibody [%] | IC50 [nM] | Binder |
| --- | --- | --- |
| 98 | – | B1 |
| 98 | – | B2 |
| 90 | 0.93 | B3 |
| 82 | – | B6 |
| 83 | – | B7 |
| 100 | 0.89 | B4 |
| 97 | 1.1 | B5 |
| 98 | – | B8 |

molecular target: T5, recombinant human PD-1 expressed with a C-terminal human IgG1 Fc tag (human); test: SPR Biacore 3000: 100 nM hPD-1.hFc + 500 nM mAb to captured hPD-L1.mFc;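 note: inhibition study with anti-PD-1 mAbs, SPR responses tracked in real time and read at the close of each step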
T5 construct: also called hPD-1-hFc; hPD1-hFc

| % Blocking [%] | binding of the mixture (RU) | Binder |
| --- | --- | --- |
| 105 | -5 | B1 |
| 105 | -5 | B2 |
| 106 | -6 | B3 |
| 104 | -4 | B4 |
| 102 | -3 | B5 |
| 43 | 57 | B8 |

Molecular target: T1, monkey PD-1 with mFc
Test: SPR, captured mAb, 37 C;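 note: Real-time Biacore surface plasmon resonance biosensor readout of PD-1 reagent binding to purified anti-PD-1 monoclonal antibodies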

| 100 nM Monkey PD-1-mFc Bound (RU) | Kd [nM] | koff [s⁻¹] | kon [M⁻¹ s⁻¹] | t1/2 [min] | Binder |
| --- | --- | --- | --- | --- | --- |
| 65 | 5.66 | 0.00136 | 241000 | 8 | B1 |
| 60 | 4.36 | 0.000816 | 187000 | 14 | B2 |
| 94 | 4.04 | 0.000609 | 151000 | 19 | B3 |
| 24 | 3.21 | 0.000897 | 280000 | 13 | B4 |
| 52 | 2.32 | 0.000794 | 342000 | 15 | B5 |
| 28 | 29.6 | 0.00477 | 161000 | 2.4 | B8 |

molecular target: T4, full length human PD-1 on HEK293/hPD-1 …; test: FACS dose response, HEK293/hPD-1 cells

| EC50 [nM] | Max Geom. Mean MFI @ 100 nM [MFI] | Binder |
| --- | --- | --- |
| 0.0917 | 24700 | B1 |
| 0.232 | 30600 | B3 |
| 0.0332 | 24400 | B6 |
| 0.048 | 20800 | B7 |
| 0.674 | 36400 | B4 |
| 0.105 | 32800 | B5 |
| 0.236 | 20000 | B8 |

molecular target: T3, recombinant human PD-1 dimer expressed …; test: BLI Octet: 100 nM hPD-1-mFc + 500 nM mAb to captured hPD-L1-hFc

| % Blocking [%] | binding of the mixture (nm) | Binder |
| --- | --- | --- |
| 100 | 0 | B6 |
| 100 | 0 | B7 |

molecular target: T6, dimeric biotinylated human PD-1 protein with a C-terminal human Fc tag (human, biotinylated (sites not given)); test: competition ELISA: 200 pM biot-hPD-1-hFc to coated hPD-L1-mFc; * below theoretical bottom 1.0E-10 M
T6 construct: also called biot-hPD-1-hFc

| IC50 [nM] | Binder |
| --- | --- |
| 0.059 | B6 |
| 0.065 | B7 |
| 0.078 | B4 |

molecular target: T6, dimeric biotinylated human PD-1 protein …; test: competition ELISA: 200 pM biot-hPD-1-hFc to coated hPD-L1-mFc

| % blocking at 50 nM antibody [%] | IC50 [nM] | Binder |
| --- | --- | --- |
| 95 | 0.13 | B1 |
| 97 | 0.19 | B2 |
| 97 | 0.35 | B3 |
| 100 | – | B6 |
| 99 | – | B7 |
| 95 | – | B4 |
| 96 | 0.15 | B5 |
